# From the Human Domainome abundance scans (Beltran et al. 2025)
# ± gives the uncertainty stated by the source.
# B1: POU domain, class 4, transcription factor 2, residues 256 to 327; numbered along this chain, Q12837 (parent)
# chain: RDLEAFAERFKQRRIKLGVTQADVGSALANLKIPGVGSLSQSTICRFESLTLSHNNMIALKPILQAWLEEAE
# Variants of: B1
# Assay: abundance fitness (aPCA) (normalised: wild type 0, dead -1); higher = more abundant; growth selection in yeast, the domain comes from the species named
# Details: Homo sapiens
row,Variant,abundance fitness
1,RDLEAFAERFKQRRIKLGVTQADVGSALANAKIPGVGSLSQSTICRFESLTLSHNNMIALKPILQAWLEEAE [L31A],-0.426 ± 0.13
2,RDLEAFAERFKQRRIKLGVTQADVGSALANCKIPGVGSLSQSTICRFESLTLSHNNMIALKPILQAWLEEAE [L31C],-0.102 ± 0.31
3,RDLEAFAERFKQRRIKLGVTQADVGSALANDKIPGVGSLSQSTICRFESLTLSHNNMIALKPILQAWLEEAE [L31D],-0.509 ± 0.26
4,RDLEAFAERFKQRRIKLGVTQADVGSALANEKIPGVGSLSQSTICRFESLTLSHNNMIALKPILQAWLEEAE [L31E],-0.112 ± 0.1
5,RDLEAFAERFKQRRIKLGVTQADVGSALANFKIPGVGSLSQSTICRFESLTLSHNNMIALKPILQAWLEEAE [L31F],-0.018 ± 0.16
6,RDLEAFAERFKQRRIKLGVTQADVGSALANGKIPGVGSLSQSTICRFESLTLSHNNMIALKPILQAWLEEAE [L31G],-0.572 ± 0.16
7,RDLEAFAERFKQRRIKLGVTQADVGSALANHKIPGVGSLSQSTICRFESLTLSHNNMIALKPILQAWLEEAE [L31H],-0.379 ± 0.25
8,RDLEAFAERFKQRRIKLGVTQADVGSALANIKIPGVGSLSQSTICRFESLTLSHNNMIALKPILQAWLEEAE [L31I],0.057 ± 0.24
9,RDLEAFAERFKQRRIKLGVTQADVGSALANKKIPGVGSLSQSTICRFESLTLSHNNMIALKPILQAWLEEAE [L31K],0.002 ± 0.22
10,RDLEAFAERFKQRRIKLGVTQADVGSALANMKIPGVGSLSQSTICRFESLTLSHNNMIALKPILQAWLEEAE [L31M],0.032 ± 0.11
11,RDLEAFAERFKQRRIKLGVTQADVGSALANPKIPGVGSLSQSTICRFESLTLSHNNMIALKPILQAWLEEAE [L31P],-0.382 ± 0.098
12,RDLEAFAERFKQRRIKLGVTQADVGSALANQKIPGVGSLSQSTICRFESLTLSHNNMIALKPILQAWLEEAE [L31Q],0.058 ± 0.08
13,RDLEAFAERFKQRRIKLGVTQADVGSALANRKIPGVGSLSQSTICRFESLTLSHNNMIALKPILQAWLEEAE [L31R],-0.081 ± 0.061
14,RDLEAFAERFKQRRIKLGVTQADVGSALANTKIPGVGSLSQSTICRFESLTLSHNNMIALKPILQAWLEEAE [L31T],-0.149 ± 0.1
15,RDLEAFAERFKQRRIKLGVTQADVGSALANWKIPGVGSLSQSTICRFESLTLSHNNMIALKPILQAWLEEAE [L31W],0.038 ± 0.095
16,RDLEAFAERFKQRRIKLGVTQADVGSALANYKIPGVGSLSQSTICRFESLTLSHNNMIALKPILQAWLEEAE [L31Y],0.041 ± 0.23
17,RDLEAFAERFKQRRIKLGVTQADVGSALANLCIPGVGSLSQSTICRFESLTLSHNNMIALKPILQAWLEEAE [K32C],-0.192 ± 0.19
18,RDLEAFAERFKQRRIKLGVTQADVGSALANLDIPGVGSLSQSTICRFESLTLSHNNMIALKPILQAWLEEAE [K32D],0.054 ± 0.23
19,RDLEAFAERFKQRRIKLGVTQADVGSALANLEIPGVGSLSQSTICRFESLTLSHNNMIALKPILQAWLEEAE [K32E],0.052 ± 0.11

row,Variant,abundance fitness
1,RDLEAFAERFKQRRIKLGVTQADVGSALANLFIPGVGSLSQSTICRFESLTLSHNNMIALKPILQAWLEEAE [K32F],-0.372 ± 0.14
2,RDLEAFAERFKQRRIKLGVTQADVGSALANLGIPGVGSLSQSTICRFESLTLSHNNMIALKPILQAWLEEAE [K32G],-0.24 ± 0.077
3,RDLEAFAERFKQRRIKLGVTQADVGSALANLHIPGVGSLSQSTICRFESLTLSHNNMIALKPILQAWLEEAE [K32H],-0.178 ± 0.17
4,RDLEAFAERFKQRRIKLGVTQADVGSALANLIIPGVGSLSQSTICRFESLTLSHNNMIALKPILQAWLEEAE [K32I],-0.181 ± 0.058
5,RDLEAFAERFKQRRIKLGVTQADVGSALANLLIPGVGSLSQSTICRFESLTLSHNNMIALKPILQAWLEEAE [K32L],-0.279 ± 0.065
6,RDLEAFAERFKQRRIKLGVTQADVGSALANLMIPGVGSLSQSTICRFESLTLSHNNMIALKPILQAWLEEAE [K32M],-0.215 ± 0.13
7,RDLEAFAERFKQRRIKLGVTQADVGSALANLNIPGVGSLSQSTICRFESLTLSHNNMIALKPILQAWLEEAE [K32N],0.189 ± 0.3
8,RDLEAFAERFKQRRIKLGVTQADVGSALANLPIPGVGSLSQSTICRFESLTLSHNNMIALKPILQAWLEEAE [K32P],-0.33 ± 0.093
9,RDLEAFAERFKQRRIKLGVTQADVGSALANLQIPGVGSLSQSTICRFESLTLSHNNMIALKPILQAWLEEAE [K32Q],-0.012 ± 0.069
10,RDLEAFAERFKQRRIKLGVTQADVGSALANLRIPGVGSLSQSTICRFESLTLSHNNMIALKPILQAWLEEAE [K32R],-0.084 ± 0.047
11,RDLEAFAERFKQRRIKLGVTQADVGSALANLSIPGVGSLSQSTICRFESLTLSHNNMIALKPILQAWLEEAE [K32S],-0.072 ± 0.065
12,RDLEAFAERFKQRRIKLGVTQADVGSALANLTIPGVGSLSQSTICRFESLTLSHNNMIALKPILQAWLEEAE [K32T],-0.112 ± 0.11
13,RDLEAFAERFKQRRIKLGVTQADVGSALANLVIPGVGSLSQSTICRFESLTLSHNNMIALKPILQAWLEEAE [K32V],-0.021 ± 0.097
14,RDLEAFAERFKQRRIKLGVTQADVGSALANLWIPGVGSLSQSTICRFESLTLSHNNMIALKPILQAWLEEAE [K32W],-0.188 ± 0.082
15,RDLEAFAERFKQRRIKLGVTQADVGSALANLYIPGVGSLSQSTICRFESLTLSHNNMIALKPILQAWLEEAE [K32Y],0.061 ± 0.19
16,RDLEAFAERFKQRRIKLGVTQADVGSALANLKAPGVGSLSQSTICRFESLTLSHNNMIALKPILQAWLEEAE [I33A],-0.295 ± 0.063
17,RDLEAFAERFKQRRIKLGVTQADVGSALANLKCPGVGSLSQSTICRFESLTLSHNNMIALKPILQAWLEEAE [I33C],-0.395 ± 0.22
18,RDLEAFAERFKQRRIKLGVTQADVGSALANLKDPGVGSLSQSTICRFESLTLSHNNMIALKPILQAWLEEAE [I33D],-0.225 ± 0.099
19,RDLEAFAERFKQRRIKLGVTQADVGSALANLKEPGVGSLSQSTICRFESLTLSHNNMIALKPILQAWLEEAE [I33E],-0.205 ± 0.18
